The text below walks through data of publication PMC6016464, “Folding and binding pathways of BH3-only proteins are encoded within their intrinsically disordered sequence, not templated by partner proteins” (The Journal of Biological Chemistry, 2018).

Usually Kd stands for the constant that tells how readily two partners part at equilibrium. What is called kon is the rate constant with which the complex forms. Lower therefore signals slower complex formation. The koff is a measure of how fast the partners let go of each other. A low value points to a long-lived complex.

The chains are these.
T1: MCL-1 (mouse, residues 152-308) (mouse)
T1 construct: remnant of thrombin cleavage at the N-terminus of MCL-1; MCL-1, mouse, residues 152-308, UniProt P97287; source: E. coli C41 pLysS, purified (Ni2+ agarose, thrombin cleavage, ion exchange, Superdex G75 gel filtration); not shown: His6, N-terminal, cleaved
T1 chain: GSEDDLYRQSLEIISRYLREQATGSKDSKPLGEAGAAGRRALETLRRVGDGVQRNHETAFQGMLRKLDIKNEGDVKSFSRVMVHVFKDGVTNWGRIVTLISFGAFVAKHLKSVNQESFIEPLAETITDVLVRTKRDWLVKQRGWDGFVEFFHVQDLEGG

T2: A1 protein (mouse, residues 1-152, P104K C113S, used as wild type) (mouse)
T2 sequence (Q07440 1-152 with P104K C113S, looked up): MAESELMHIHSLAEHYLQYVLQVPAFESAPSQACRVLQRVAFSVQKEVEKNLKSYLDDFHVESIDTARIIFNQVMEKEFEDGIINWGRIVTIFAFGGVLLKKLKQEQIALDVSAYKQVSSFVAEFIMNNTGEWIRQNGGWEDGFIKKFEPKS

B1: PUMA (A139G A150G) peptide (on the M144A wild type), TAMRA-labelled (peptide, UniProt Q99ML1 127-161, looked up)
chain: {TAMRA}-RVEEEEWAREIGGQLRRAADDLNGQYERRRQEEQH
notes: PUMA, mouse, residues 127-161, UniProt Q99ML1; Double mutant; also called A150G (A139G); source: synthetic peptide (Biomatik)
B2: BID E81A peptide, TAMRA-labelled (peptide, UniProt P70444 76-110, looked up)
chain: {TAMRA}-SESQEAIIHNIARHLAQIGDEMDHNIQPTLVRQLA
notes: BID, mouse, residues 76-110, UniProt P70444; source: synthetic peptide (Biomatik)
B3: BID R88A peptide, TAMRA-labelled (peptide, UniProt P70444 76-110, looked up)
chain: {TAMRA}-SESQEEIIHNIAAHLAQIGDEMDHNIQPTLVRQLA
notes: as for B2
B4: BID R88G peptide, TAMRA-labelled (peptide, UniProt P70444 76-110, looked up)
chain: {TAMRA}-SESQEEIIHNIAGHLAQIGDEMDHNIQPTLVRQLA
notes: as for B2
B5: BID E81G peptide, TAMRA-labelled (peptide, UniProt P70444 76-110, looked up)
chain: {TAMRA}-SESQEGIIHNIARHLAQIGDEMDHNIQPTLVRQLA
notes: as for B2
B6: BID I83A peptide, TAMRA-labelled (peptide, UniProt P70444 76-110, looked up)
chain: {TAMRA}-SESQEEIAHNIARHLAQIGDEMDHNIQPTLVRQLA
notes: as for B2
B7: BID I101A peptide, TAMRA-labelled (peptide, UniProt P70444 76-110, looked up)
chain: {TAMRA}-SESQEEIIHNIARHLAQIGDEMDHNAQPTLVRQLA
notes: as for B2
B8: BID M97A peptide, TAMRA-labelled (peptide, UniProt P70444 76-110, looked up)
chain: {TAMRA}-SESQEEIIHNIARHLAQIGDEADHNIQPTLVRQLA
notes: as for B2
B9: BID L90A peptide, TAMRA-labelled (peptide, UniProt P70444 76-110, looked up)
chain: {TAMRA}-SESQEEIIHNIARHAAQIGDEMDHNIQPTLVRQLA
notes: as for B2
B10: BID peptide (mouse, residues 76-110), N-terminal TAMRA (peptide, UniProt P70444 76-110, looked up)
peptide: {TAMRA}-SESQEEIIHNIARHLAQIGDEMDHNIQPTLVRQLA
notes: BID, mouse, residues 76-110, UniProt P70444; source: synthetic peptide (synthesized by Biomatik)

Where no end group is shown, it is not given here. The star is where a group is joined. TAMRA = 5-carboxytetramethylrhodamine, CN(C)c1ccc2c(-c3ccc(C(=O)*)cc3C(=O)[O-])c3ccc(=[N+](C)C)cc-3oc2c1

One assay deals with T1, MCL-1 (mouse, residues 152-308). Kind of assay: other fluorescence titration; equilibrium binding curve of TAMRA-labelled peptide, fluorescence (A.U.) against MCL-1 concentration; 50 mM sodium phosphate, 0.05% (v/v) Tween 20, pH 7.0. The settings on record: both partners purified.
Take B1: the affinity, expressed as Kd, was 1.7 ± 0.2 nM.

For the next assay, the target named is T2, A1 protein (mouse, residues 1-152, P104K C113S, used as wild type) (mouse). Kind of assay: stopped-flow fluorescence kinetics + other: fluorescence dissociation kinetics with competitor; Kd calculated as the ratio koff/kon of the kinetic rate constants; 25 °C; 50 mM sodium phosphate, 0.05% (v/v) Tween 20, pH 7.0.
Conditions: not given
For the molecule {TAMRA}-RVEEEEWAREIGAQARRAADDLNAQYERRRQEEQH [PUMA L141A peptide (on the M144A wild type), TAMRA-labelled], the Kd was 735 nM.

Regarding B2, the Kd is 0.02 nM.

For the molecule B3, the dissociation constant Kd was 0.16 nM.

For B4, the Kd is 0.6 nM.

Turning to B5, the Kd is 0.047 nM.

As for B6, the Kd was 0.29 nM.

Turning to B7, the Kd is 0.022 nM.

For the molecule B8, the Kd was 0.19 nM.

Turning to B9, the dissociation constant Kd is 210 nM.

On to {TAMRA}-RVEEEEWAREIGAQLRRAADDANAQYERRRQEEQH [PUMA L148A peptide (on the M144A wild type), TAMRA-labelled], for which the Kd was 7.1 nM.

For the molecule B1, the Kd was 1.4 nM.

Another assay deals with T1, MCL-1 (mouse, residues 152-308). Described as above. The note with it: both partners purified.
Take B2: the Kd is 0.55 nM.

B3: the dissociation constant (Kd) is 0.6 nM.

For B4, the dissociation constant Kd is 1.8 nM.

With B5, the equilibrium dissociation constant (Kd) is 1.6 nM.

As to B6, the dissociation constant (Kd) is 1.7 nM.

As to B7, the Kd was 0.3 nM.

In the case of B8, the Kd is 3.8 nM.

For B9, the dissociation constant Kd was 610 nM.

The target in a further assay is T2, A1 protein (mouse, residues 1-152, P104K C113S, used as wild type) (mouse). Kind of assay: stopped-flow fluorescence kinetics; association; TAMRA-labelled peptide with folded partner at least 10-fold higher (pseudo-first-order); kon from the gradient of kobs versus partner concentration; 25 °C; 50 mM sodium phosphate, 0.05% (v/v) Tween 20, pH 7.0.
Conditions: not given
Molecule {TAMRA}-RVEEEEWAREIGAQARRAADDLNAQYERRRQEEQH [PUMA L141A peptide (on the M144A wild type), TAMRA-labelled] yielded a kon of 1.67e+06 M⁻¹ s⁻¹.

For the molecule B3, the kon was determined as 5.3e+06 M⁻¹ s⁻¹.

B4: the kon was determined as 4.9e+06 M⁻¹ s⁻¹.

B8 displayed an association rate constant (kon) of 8.1e+06 M⁻¹ s⁻¹.

In turn, B9 came in with a kon of 3.1e+06 M⁻¹ s⁻¹.

Molecule {TAMRA}-RVEEEEWAREIGAQLRRAADDANAQYERRRQEEQH [PUMA L148A peptide (on the M144A wild type), TAMRA-labelled] registered an association rate constant (kon) of 4.9e+06 M⁻¹ s⁻¹.

The molecule B1 registered an association rate constant (kon) of 2.78e+06 M⁻¹ s⁻¹.

Another assay has the same target. Described as above.
Conditions: not given
The source holds these as a separate data set.
With B2, the on-rate (kon) was 1.07e+07 M⁻¹ s⁻¹.

Regarding B5, the on-rate (kon) stood at 9.6e+06 M⁻¹ s⁻¹.

As to B6, the kon worked out at 7e+06 M⁻¹ s⁻¹.

For the molecule B7, the on-rate constant (kon) is 8.6e+06 M⁻¹ s⁻¹.

For the next assay the target is unchanged. In words: fluorescence polarisation; equilibrium binding by fluorescence anisotropy of the TAMRA-labelled peptide against partner protein concentration; anisotropy adjusted for the change in fluorescence intensity; 25 °C; 50 mM sodium phosphate, 0.05% (v/v) Tween 20, pH 7.0.
Conditions: not given
{TAMRA}-RVEEEEWAREIGAQARRAADDLNAQYERRRQEEQH [PUMA L141A peptide (on the M144A wild type), TAMRA-labelled] gave a Kd of 710 nM.

B9: the Kd turned out to be 360 nM.

In turn, {TAMRA}-RVEEEEWAREIGAQLRRAADDANAQYERRRQEEQH [PUMA L148A peptide (on the M144A wild type), TAMRA-labelled] returned a dissociation constant (Kd) of 5.65 nM.

Another assay addresses T1, MCL-1 (mouse, residues 152-308). Kind of assay: stopped-flow fluorescence kinetics; association; TAMRA-labelled peptide with folded partner at least 10-fold higher (pseudo-first-order); kon from the gradient of kobs versus partner concentration; 25 °C; 50 mM sodium phosphate, 0.05% (v/v) Tween 20, pH 7.0. The note with it: both partners purified. A digest of the protocol: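 TAMRA-labelled peptide was mixed with mouse MCL-1 (residues 152–308) by stopped-flow in 50 mM sodium phosphate, 0.05% (v/v) Tween 20, pH 7.0, at 25 °C, with the partner at least 10-fold in excess. Fluorescence was excited at 555 nm and collected above 570 nm. At least 15 traces were averaged, points before the 1 ms deadtime were discarded, and single-exponential fits yielded kobs. The association rate constant (kon) is the slope of kobs plotted against partner concentration.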
Molecule B2 registered an on-rate (kon) of 6.5e+06 M⁻¹ s⁻¹.

Turning to B3, the kon turned out to be 1e+07 M⁻¹ s⁻¹.

Consider B4, for which the kon turned out to be 8.3e+06 M⁻¹ s⁻¹.

B5 showed a kon of 4.8e+06 M⁻¹ s⁻¹.

The molecule B6 gave an on-rate (kon) of 8.6e+06 M⁻¹ s⁻¹.

B7 had a kon of 8.2e+06 M⁻¹ s⁻¹.

B8 gave a kon of 7.8e+06 M⁻¹ s⁻¹.

Consider B9, for which the on-rate (kon) was 2.1e+06 M⁻¹ s⁻¹.

The next assay has the same target. In words: fluorescence polarisation; equilibrium binding by fluorescence anisotropy of the TAMRA-labelled peptide against partner protein concentration; anisotropy adjusted for the change in fluorescence intensity; 25 °C; 50 mM sodium phosphate, 0.05% (v/v) Tween 20, pH 7.0. The note with it: both partners purified.
B9 had an equilibrium dissociation constant (Kd) of 1200 nM.

The next assay deals with T3, MCL-1 (mouse, residues 152-308) (mouse, UniProt P97287 152-308).
T3 construct: MCL-1, mouse, residues 152-308, UniProt P97287; source: recombinantly produced, purified (protocol in the supplemental Experimental Procedures)
In words: dissociation kinetics by competition (fluorescence); preformed complex of TAMRA peptide and partner protein mixed with various concentrations of unlabeled PUMA peptide as competitor; stopped-flow or spectrophotometer; 25 °C; 50 mM sodium phosphate, 0.05% (v/v) Tween 20, pH 7.0. The settings on record: both partners purified.
Regarding B10, the binding result is listed as “binds”.

The target of a further assay is T2, A1 protein (mouse, residues 1-152, P104K C113S, used as wild type) (mouse). Kind of assay: fluorescence dissociation kinetics with competitor; dissociation; preformed complex of TAMRA-labelled peptide and partner protein mixed with excess unlabeled PUMA peptide as competitor; stopped-flow or Cary Eclipse spectrophotometer; 25 °C; 50 mM sodium phosphate, 0.05% (v/v) Tween 20, pH ….
Conditions: not given
In turn, {TAMRA}-RVEEEEWAREIGAQARRAADDLNAQYERRRQEEQH [PUMA L141A peptide (on the M144A wild type), TAMRA-labelled] yielded a koff of 1.23 s⁻¹.

B3 registered a koff of 0.00088 s⁻¹.

The molecule B4 displayed an off-rate (koff) of 0.00303 s⁻¹.

For the molecule B8, the dissociation rate constant (koff) was determined as 0.0015 s⁻¹.

B9 yielded a koff of 0.66 s⁻¹.

For the molecule {TAMRA}-RVEEEEWAREIGAQLRRAADDANAQYERRRQEEQH [PUMA L148A peptide (on the M144A wild type), TAMRA-labelled], the koff was found to be 0.0348 s⁻¹.

Regarding B1, the off-rate (koff) was 0.0039 s⁻¹.

Another assay has the same target. Described as above.
Conditions: not given
This is another data set of the same source.
As for B2, the koff was found to be 0.000213 s⁻¹.

In the case of B5, the off-rate constant (koff) turned out to be 0.000454 s⁻¹.

B6 came in with an off-rate constant (koff) of 0.002 s⁻¹.

With B7, the dissociation rate constant (koff) stood at 0.0002 s⁻¹.

The next assay concerns the target T1, MCL-1 (mouse, residues 152-308). In words: fluorescence dissociation kinetics with competitor; dissociation; preformed complex of TAMRA-labelled peptide and partner protein mixed with excess unlabeled PUMA peptide as competitor; stopped-flow or Cary Eclipse spectrophotometer; 25 °C; 50 mM sodium phosphate, 0.05% (v/v) Tween 20, pH 7.0. The settings on record: both partners purified. The essentials: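 The dissociation rate constant (koff) was found by displacing TAMRA-labelled peptide from its preformed complex with mouse MCL-1 (residues 152–308) using a range of unlabelled competitor peptide concentrations. Experiments were run at 25 °C in 50 mM sodium phosphate, 0.05% (v/v) Tween 20, pH 7.0, on a stopped-flow instrument when kobs was above 0.03 s^−1 and on a Cary Eclipse when kobs was below 0.03 s^−1. Each fluorescence trace was fit to a single exponential, and once competitor was in sufficient excess, the kobs values that no longer depended on concentration were averaged to give koff.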
As for B2, the dissociation rate constant (koff) is 0.0036 s⁻¹.

Regarding B3, the koff was found to be 0.0063 s⁻¹.

Molecule B4 had a koff of 0.015 s⁻¹.

As to B5, the dissociation rate constant (koff) was 0.008 s⁻¹.

The molecule B6 registered an off-rate (koff) of 0.014 s⁻¹.

As for B7, the dissociation rate constant (koff) amounted to 0.0025 s⁻¹.

The molecule B8 yielded an off-rate (koff) of 0.03 s⁻¹.

Molecule B9 yielded a koff of 1.3 s⁻¹.
